Assay results taken from the supplement of paper PMC10567573.

B1: ANKRD40 (parent)
chain: VRIQNPSLRENDFIEIELDRQELT

Variants of: B1
Test: protein stability index of a GFP-peptide fusion (GPS, HEK-293T) (PSI 1-6); higher = more stable
Details: c terminus: a fixed tail appended
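Note: lentivirally expressed fusions sorted by FACS into six bins by GFP to DsRed ratio, PSI derived from sequencing read proportions per bin multiplied by bin number.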

Protein stability index, by site and new letter:
L8: K 2.96; E 3.34; I 3.35; H 2.93; W 1.98; V 2.41; R 2.47; N 2.43; A 2.77; D 2.76; Q 3.11; Y 2.15; F 2.27; C 2.36; P 3.13; S 3.24; T 3.42; G 2.08; M 2.42
P6: I 1.52; D 2.38; S 2.16; H 2.65; L 2.17; F 1.66; W 1.77; N 2.67; T 2.02; E 2.93; A 2.75; Q 2.6; R 2.69; C 2.06; Y 1.73; K 2.67; G 2.28; V 2.02; M 2.18
R9: H 1.81; A 1.92; M 1.97; L 2.48; S 2.41; I 1.68; F 1.51; N 1.93; T 2.54; P 2.63; K 2.62; D 2.23; G 2.32; Q 2.16; E 2.74; C 2.33
I3: T 3.9; C 3.22; L 2.75; D 4.9; Q 3.71; P 3.77; Y 3.11; S 3.84; V 3.06; F 2.44; K 3.44; N 4.28; W 2.4; E 4.63; R 3.88; M 3.61; G 4.05; H 4.17; A 4.17
Q4: G 2.36; W 1.61; V 2.01; A 2.16; T 2.27; Y 1.98; F 1.92; H 2.11; D 2.88; P 2.63; E 2.31; K 2.09; R 2.12; I 2.24; C 2.01; M 2.04; S 2.29; L 1.89; N 2.46
S7: W 2.2; E 2.8; M 2.01; Q 2.82; L 2.09; P 3.72; D 2.91; I 2.56; A 2.76; F 1.45; C 2.33; Y 2.16; K 2.81; N 2.79; G 2.26; R 2.39; V 2.81; T 3.04; H 2.13
V1: N 4.46; T 3.96; I 2.03; Q 4.27; F 2.58; G 4.27; Y 3.41; M 2.79; L 2.71; A 3.91; S 4.3; C 3.51; K 3.97; R 3.63; H 4.04; W 2.99; D 5.15; P 4.53; E 4.77
N5: K 2.74; M 2.73; G 1.9; H 1.73; I 2.43; C 2.45; W 2.23; A 1.86; F 2.28; D 2.48; R 2.29; Q 2.07; L 3.56; P 2.08; Y 1.36; S 1.74; T 2.16; E 3.08
R2: P 4.93; T 3.5; G 4.28; L 2.24; A 2.73; F 1.87; I 2.29; D 4.69; M 3.05; C 2.93; V 2.46; Y 1.73; Q 4.3; W 1.74; E 4.16; N 4.11; K 2.98; S 3.64; H 3.13
